B1: ATG18h promoter probe (WT DRE) (dsDNA)
DNA 1: GCGGTGAAAAGACCGACGGACGAAACGTGA
DNA 2: TCACGTTTCGTCCGTCGGTCTTTTCACCGC
B2: ATG8d promoter probe (WT DRE) (dsDNA)
DNA 1: TCACGTTACATATGACCGACATAAAGATAA
DNA 2: TTATCTTTATGTCGGTCATATGTAACGTGA
B3: ATG18h-competitor (mutated DRE) (dsDNA)
DNA 1: GCGGTGAAAAGATTGACGGACGAAACGTGA
DNA 2: TCACGTTTCGTCCGTCAATCTTTTCACCGC
B4: ATG8d-competitor (mutated DRE) (dsDNA)
DNA 1: TCACGTTACATATGACAAACATAAAGATAA
DNA 2: TTATCTTTATGTTTGTCATATGTAACGTGA

Chain of ERF5 (Q6Q4I4 entry or part of it): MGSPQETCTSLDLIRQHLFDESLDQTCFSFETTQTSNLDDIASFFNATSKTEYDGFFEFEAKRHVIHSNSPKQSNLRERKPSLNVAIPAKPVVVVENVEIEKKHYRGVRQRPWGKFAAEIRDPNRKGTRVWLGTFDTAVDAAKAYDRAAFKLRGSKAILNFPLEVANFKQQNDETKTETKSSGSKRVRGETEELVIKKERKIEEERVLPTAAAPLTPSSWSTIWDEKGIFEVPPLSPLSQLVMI

The data set concerns the target ERF5 (Solanum lycopersicum, UniProt Q6Q4I4 1-244). Description: EMSA; EMSA Kit with SYBR Green & SYPRO Ruby stains (Invitrogen), per kit instructions; buffer, salt, pH, temperature not stated. The settings on record: protein: recombinant; tags: pET-32a vector fusion (His control used); label: none (SYBR Green stain).
With B1, the binding result is reported as “binds”.

As for B2, the binding result is “binds”.

For the molecule B3, the binding result is given as “no binding”.

For B4, the binding result is recorded as “no binding”.

Source of the values: article PMC6230944, “Mitochondrial alternative oxidase‐dependent autophagy involved in ethylene‐mediated drought tolerance in Solanum lycopersicum”.
